Test [1] addresses Oregon-Green-labelled actin monomers (OG-actin) (UniProt P68135 1-377, Oregon-Green (OG) label, position not stated). The test can be described thus: other fluorescence titration.
For test [2] the target is unchanged. The test can be described thus: stopped-flow fluorescence kinetics.

Broadly, the Kd is the constant that tells how readily two partners part at equilibrium. Higher therefore signals lower affinity. For orientation: kon means the second-order rate constant of association. A lower kon goes with slower complex formation.

GRNALLGSIENFSKGGLKKTVT [DdGAB peptide (G-actin-binding site of Dictyostelium discoideum VASP)] yielded a Kd in test [1] of 630 nM. Still for that read-out and setting: the figure for GLAAAIAGAKLRKVSK [hGAB peptide (G-actin-binding site of human VASP)] is 10300 nM; for GRNALLSDISKGKKLKKTVT [WIP-WH2-peptide (WH2 core motif of WASP-interacting protein)] it is 840 nM.

B1: EVH2 domain of Dictyostelium discoideum VASP (DdEVH2) (domain or fragment)
chain: GRNALLGSIENFSKGGLKKTVTVDKSAGVPTKTTPSANSAASNAGSEPSSGGSTPAPAPKSSGGGGGGDLMAEVMAKRAKMKAAASQPKEESSAPTPAPTPAPTPAPTPSSTSFKPPQSFSKPATKTAAANKPPSPSLSAPLPSTVANEDLQSLKEEILTEVRKEIQKAKDEILEAIRASQH
The molecule B1 came in with a kon in test [2] of 5.3e+07 M⁻¹ s⁻¹.

Source of the values: publication PMC3034019 (The EMBO Journal, 2011).
